Experimental data published in patent US20090324601A1 (published 2009).
Positions count from the first letter of the chain named.

B1: 5.16.1 (antibody, V domains shown)
VH: QVQLVQSGAEVKKPGASVKVSCKASGYTFTSYYMYWVRQAPGQGLEWMGIINPSGGSTSYAQKFQGRVTMTRDTSTSTVYMELSSLRSEDTAVYYCARGSSPFFDYWGQGTLVTVSS
VL: DIQMTQSPSSLSASVGDRVTITCRASQIISHFLNWYQQKPGKAPKLLVYVASSLQSGVPSRFSGSGSGTDFTLTISSLQPEDFATYYCQQSFSIPLTFGGGTKVEIK
B2: 2.414.2 (antibody, V domains shown)
VH: QLQLQESGPGLVKPSETLSLTCTVSGGSISSSNYYWGWIRQPPGKGLEWIGTIYYTGSTYYNPSLKSRVTISVDTSKNQFSLKLSSVTAADTAVYYCARHHWVFDYWGQGTLVTVSS
VL: EIVLTQSPDFLSVTPKEKVTITCRASQIIGSSLHWYQQKPDQSPKLLIKYASQSFSGVPSRFSGSGSGTDFTLTLNSLEAEDAATYYCHQSTILPWTFGQGTKVEIK
B3: 2.542.2 (antibody, V domains shown)
VH: B2 VH with N33T, T56S, S85N
VL: B2 VL with K45N, F55V
B4: 3.341.2 (antibody, V domains shown)
VH: EVQLVESGGGLVQPGGSLRLSCAASGFTFSSYSMNWVRQAPGKGLEWVSFISGSSSTMYYADSVKGRFTISRDNAKNSLYLQMNSLRDEDTAVYYCARLRYFDWSYAFDIWGQGTMVTVSS
VL: DIQMTQSPSSVSTSVGDRVTITCRASQGIRSWLAWYQQRPGKAPKLLIYAASSLQNGVPSRFSGSGSGTDFTLTISSLQPEDFATYFCQQATSFPFTFGPGTKVDIN
notes: Only variable regions
B5: 2.351.3 (antibody, V domains shown)
VH: QVQLVQSGAEVKKPGASVKVSCKASGYTFIGYYLHWVRQAPGQGLEWMGSINPNSGGTNYAQKFQGRVTMIRDTSINTAYMELSRLRSDDTAVYYCARDKRITMVRGVHYLYYGWDVWGQGTTVTVSS
VL: DIQMTQSPSSLSASVGDRVTITCRASQVISNYLAWYQQKPGKVPQLLIYAASTLQSGVPSRFSGSGSGTDFTLTISSLQPEDVATYYCQNYKSAPWTFGQGTKVEIK
B6: 2.796.2 (antibody, V domains shown)
VH: QVQLVESGGGLVKPGGSLRLSCAASGFTFSDYYMNWIRQAPGKGLEWVSYISSSGSIIYYADSVKGRFTISRDNAKNSLYLQMNSLRAEDTAVYYCARDGHIAARGMDVWGQGTTVTVSS
VL: DIQMTQSPSSLSASVGDRVTITCRASQSFSRYINWYQQKPGKAPKLLIYAASSLQGGVPSRFSGSGSGTDFTLTISSLQPEDFATYYCQQTYSNPPITFGQGTRLEIK
B7: 2.737.1.4 (antibody, V domains shown)
VH: B6 VH with S30R, N35S, S49A, Y50F, Y80F
VL: B6 VL with F29I, S30N, R31K, G56S, S63N, L73F, S76N, S77T, N94T
B8: 2.2071.1.3 (antibody, V domains shown)
VH: B6 VH with H101R, A103V
VL: B6 VL with I21L, Q27H, F29I, S30N, G56S, S65N, T91S, N94T, K108T
B9: 2.414.2 (antibody, V domains shown)
VH: B2 VH
VL: B2 VL
B10: 2.542.2 (antibody, V domains shown)
VH: B2 VH with N33T, T56S, S85N
VL: B2 VL with K45N, F55V
B11: 3.341.2 (antibody, V domains shown)
VH: B4 VH
VL: B4 VL
B12: 2.351.3 (antibody, V domains shown)
VH: B5 VH
VL: B5 VL
B13: 2.1853.3 (antibody, V domains shown)
VH: B6 VH with H101R, A103V
VL: B6 VL with S12C, Q27R, F29I, S30T, I33L, A50G, G56S, T91S, N94T
B14: 2.737.1.4 (antibody, V domains shown)
VH: B6 VH with S30R, N35S, S49A, Y50F, Y80F
VL: B6 VL with F29I, S30N, R31K, G56S, S63N, L73F, S76N, S77T, N94T
B15: 2.1623.2 (antibody, V domains shown)
VH: B6 VH with Y50F, I57T
VL: B6 VL with T74A, N94T
B16: 2.796.2 (antibody, V domains shown)
VH: B6 VH
VL: B6 VL
B17: 2.2071.1.3 (antibody, V domains shown)
VH: B6 VH with H101R, A103V
VL: B6 VL with I21L, Q27H, F29I, S30N, G56S, S65N, T91S, N94T, K108T
B18: 5.16.1 (antibody, V domains shown)
VH: B1 VH
VL: B1 VL

What follows are binders tested against PDGFR-alpha on human osteosarcoma MG-63 cells (human, UniProt P16234 24-1089) (assay: cell-based or functional assay).
PDGFR-alpha on human osteosarcoma MG-63 cells, sequence (P16234 24-1089): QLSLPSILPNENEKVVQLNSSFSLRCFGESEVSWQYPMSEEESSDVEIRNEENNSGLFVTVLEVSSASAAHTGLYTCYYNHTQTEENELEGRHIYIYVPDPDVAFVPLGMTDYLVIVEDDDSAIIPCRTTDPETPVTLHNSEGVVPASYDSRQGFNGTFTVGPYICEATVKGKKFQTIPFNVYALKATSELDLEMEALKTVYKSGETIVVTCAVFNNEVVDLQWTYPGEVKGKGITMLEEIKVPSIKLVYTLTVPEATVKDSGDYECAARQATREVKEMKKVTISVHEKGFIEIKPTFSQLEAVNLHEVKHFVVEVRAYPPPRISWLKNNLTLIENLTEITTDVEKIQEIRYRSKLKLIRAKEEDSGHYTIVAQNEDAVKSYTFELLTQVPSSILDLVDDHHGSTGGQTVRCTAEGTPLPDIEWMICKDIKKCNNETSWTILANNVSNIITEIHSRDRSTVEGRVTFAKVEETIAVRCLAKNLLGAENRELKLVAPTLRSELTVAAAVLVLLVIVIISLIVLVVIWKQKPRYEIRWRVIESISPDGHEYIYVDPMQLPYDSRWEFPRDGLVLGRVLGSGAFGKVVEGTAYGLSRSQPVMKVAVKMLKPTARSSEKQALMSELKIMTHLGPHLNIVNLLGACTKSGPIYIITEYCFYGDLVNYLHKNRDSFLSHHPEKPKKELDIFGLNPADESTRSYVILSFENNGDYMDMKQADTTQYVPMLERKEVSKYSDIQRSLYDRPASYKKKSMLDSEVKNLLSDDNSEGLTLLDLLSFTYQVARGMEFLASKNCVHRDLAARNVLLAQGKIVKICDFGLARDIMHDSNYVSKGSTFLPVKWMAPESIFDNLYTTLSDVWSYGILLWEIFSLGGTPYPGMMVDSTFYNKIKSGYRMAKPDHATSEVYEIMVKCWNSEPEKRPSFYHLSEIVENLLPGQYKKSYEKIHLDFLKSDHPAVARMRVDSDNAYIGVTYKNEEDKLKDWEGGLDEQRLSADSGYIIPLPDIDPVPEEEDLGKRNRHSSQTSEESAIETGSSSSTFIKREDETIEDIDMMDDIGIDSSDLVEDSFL
In the case of B1, the “Proliferation Assay: IC50 ng/ml (1-6-06)” value is reported as 386 ng/mL, the “Proliferation Assay: IC50 ng/ml (1-23-06)” value is reported as 423 ng/mL and the “Proliferation Assay: IC50 (1-6-06)” value is reported as 2.57 nM. For the same binder, the “Proliferation Assay: IC50 (1-23-06)” value was 2.81 nM and the “pTyr Assay: % Inhibition @ 2 µg/ml” value was 99%.
In the case of B2, the “Proliferation Assay: IC50 ng/ml (1-6-06)” value is reported as 658 ng/mL, the “Proliferation Assay: IC50 ng/ml (1-23-06)” value is reported as 349 ng/mL and the “Proliferation Assay: IC50 (1-6-06)” value is reported as 4.4 nM. For the same binder, the “Proliferation Assay: IC50 (1-23-06)” value was 2.3 nM and the “pTyr Assay: % Inhibition @ 2 µg/ml” value was 99%.
B3 was tested, and the “Proliferation Assay: IC50 ng/ml (1-6-06)” value was 1040 ng/mL, the “Proliferation Assay: IC50 ng/ml (1-23-06)” value was 652 ng/mL and the “pTyr Assay: % Inhibition @ 2 µg/ml” value was 99%.
For B4, the “Proliferation Assay: IC50 ng/ml (1-6-06)” value was 404 ng/mL, the “Proliferation Assay: IC50 ng/ml (1-23-06)” value was 471 ng/mL and the “Proliferation Assay: IC50 (1-6-06)” value was 2.7 nM. The “Proliferation Assay: IC50 (1-23-06)” value was 3.1 nM and the “pTyr Assay: % Inhibition @ 2 µg/ml” value was 100%.
B5 was tested, and the “Proliferation Assay: IC50 ng/ml (1-6-06)” value was 1080 ng/mL, the “Proliferation Assay: IC50 ng/ml (1-23-06)” value was 649 ng/mL and the “pTyr Assay: % Inhibition @ 2 µg/ml” value was 97%.
In the case of B6, the “Proliferation Assay: IC50 ng/ml (1-6-06)” value is reported as 498 ng/mL, the “Proliferation Assay: IC50 ng/ml (1-23-06)” value is reported as 757 ng/mL and the “pTyr Assay: % Inhibition @ 2 µg/ml” value is reported as 99%.
B7 was tested, and the “Proliferation Assay: IC50 ng/ml (1-6-06)” value was 551 ng/mL, the “Proliferation Assay: IC50 ng/ml (1-23-06)” value was 558 ng/mL and the “Proliferation Assay: IC50 (1-6-06)” value was 3.7 nM. For the same binder, the “Proliferation Assay: IC50 (1-23-06)” value was 3.73 nM and the “pTyr Assay: % Inhibition @ 2 µg/ml” value was 99%.
For B8, the “Proliferation Assay: IC50 ng/ml (1-6-06)” value was 1280 ng/mL, the “Proliferation Assay: IC50 ng/ml (1-23-06)” value was 492 ng/mL and the “Proliferation Assay: IC50 (1-6-06)” value was 8.5 nM. The “Proliferation Assay: IC50 (1-23-06)” value was 3.3 nM and the “pTyr Assay: % Inhibition @ 2 µg/ml” value was 99%.

These binders were tested against T1, PDGFR-alpha on MG-63 cells (human, UniProt P16234 24-1089) (assay: cell-based or functional assay).
T1 sequence (P16234 24-1089): as above
B9 was tested, and the “Average pTyr Inhibition” value was 98%.
B10 was tested, and the “Average pTyr Inhibition” value was 91%.
For B11, the “Average pTyr Inhibition” value was over 100%.
With B12 the “Average pTyr Inhibition” value was 97%.
With B13 the “Average pTyr Inhibition” value was over 100%.
B14 was tested, and the “Average pTyr Inhibition” value was 93%.
In the case of B15, the “Average pTyr Inhibition” value is reported as over 100%.
For B16, the “Average pTyr Inhibition” value was 93%.
For B17, the “Average pTyr Inhibition” value was over 100%.

Biological target: T1, PDGFR-alpha on MG-63 cells
Assay: cell-based or functional assay
Remark: another data set of the same source
For B18, the “PROLIFERATION ASSAY: MG-63 CELLS, IC50” value was 2.8 nM.
For B9, the “PROLIFERATION ASSAY: MG-63 CELLS, IC50” value was 2.3 nM.
B10 was tested, and the “PROLIFERATION ASSAY: MG-63 CELLS, IC50” value was 4.35 nM.
For B11, the “PROLIFERATION ASSAY: MG-63 CELLS, IC50” value was 3.1 nM.
With B12 the “PROLIFERATION ASSAY: MG-63 CELLS, IC50” value was 4.3 nM.
B13 was tested, and the “PROLIFERATION ASSAY: MG-63 CELLS, IC50” value was 18 nM.
In the case of B14, the “PROLIFERATION ASSAY: MG-63 CELLS, IC50” value is reported as 3.72 nM.
In the case of B15, the “PROLIFERATION ASSAY: MG-63 CELLS, IC50” value is reported as 6.5 nM.
For B16, the “PROLIFERATION ASSAY: MG-63 CELLS, IC50” value was 5 nM.
B17 was tested, and the “PROLIFERATION ASSAY: MG-63 CELLS, IC50” value was 3.3 nM.

The binders below were run against T2, murine PDGFRa on NIH3T3 cells (murine, UniProt P26618 25-1089) (assay: FACS on NIH3T3 cells, goat anti-human IgG Cy5).
T2 construct: whole, on cells; also called mouse PDGFR-alpha
T2 sequence (P26618 25-1089): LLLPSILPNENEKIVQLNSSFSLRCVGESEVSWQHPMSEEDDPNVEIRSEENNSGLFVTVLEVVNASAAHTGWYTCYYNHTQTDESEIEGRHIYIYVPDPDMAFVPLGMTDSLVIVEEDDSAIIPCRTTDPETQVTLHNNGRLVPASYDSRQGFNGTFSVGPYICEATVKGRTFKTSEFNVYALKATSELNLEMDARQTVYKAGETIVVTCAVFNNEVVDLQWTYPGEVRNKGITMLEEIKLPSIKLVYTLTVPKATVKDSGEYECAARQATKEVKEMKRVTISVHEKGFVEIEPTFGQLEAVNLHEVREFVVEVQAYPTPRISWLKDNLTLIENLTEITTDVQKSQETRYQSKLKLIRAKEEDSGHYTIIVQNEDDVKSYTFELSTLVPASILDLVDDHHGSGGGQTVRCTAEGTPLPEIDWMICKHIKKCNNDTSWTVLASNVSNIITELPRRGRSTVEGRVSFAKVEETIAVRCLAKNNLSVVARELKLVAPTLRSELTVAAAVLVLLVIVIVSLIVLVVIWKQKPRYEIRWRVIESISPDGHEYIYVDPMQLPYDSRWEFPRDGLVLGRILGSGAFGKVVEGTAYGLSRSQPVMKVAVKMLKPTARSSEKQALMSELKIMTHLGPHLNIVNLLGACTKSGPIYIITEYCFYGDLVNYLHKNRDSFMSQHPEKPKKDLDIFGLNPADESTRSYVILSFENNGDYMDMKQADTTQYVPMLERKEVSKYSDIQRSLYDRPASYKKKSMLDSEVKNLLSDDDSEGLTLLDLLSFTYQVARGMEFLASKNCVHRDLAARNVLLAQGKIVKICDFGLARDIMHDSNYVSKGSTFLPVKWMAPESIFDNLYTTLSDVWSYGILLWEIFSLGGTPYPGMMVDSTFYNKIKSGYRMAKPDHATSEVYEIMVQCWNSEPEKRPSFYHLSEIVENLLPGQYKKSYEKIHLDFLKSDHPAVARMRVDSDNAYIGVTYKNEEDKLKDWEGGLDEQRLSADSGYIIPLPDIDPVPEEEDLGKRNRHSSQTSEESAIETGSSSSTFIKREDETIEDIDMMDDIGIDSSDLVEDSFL
Protocol: To set up animal xenograft studies, mouse cross-reactivity was determined using FACS analysis performed with NIH3T3 cells, a murine fibroblast line which expresses endogenous PDGFRa. […] Cells were rinsed and analyzed by FACS for the presence of Cy5.
B1: no binding (tested: 10 ug/ml).
B2: no binding (tested: 10 ug/ml).
B3: no binding (tested: 10 ug/ml).
B4: no binding (tested: 10 ug/ml).
B5: no binding (tested: 10 ug/ml).
B6: no binding (tested: 10 ug/ml).
B7: no binding (tested: 10 ug/ml).
B8: no binding (tested: 10 ug/ml).
